Where a chain is given by its changes, count along the chain named.
Key:
[1] = molecular target: T1, TWIST2 (Homo sapiens, UniProt Q8WVJ9 1-160); assay: competition; vs labeled probe #5; EMSA: 20 mM HEPES pH 7.9, 60 mM KCl, 1 mM MgCl2, 0.5 mM DTT, 10% glycerol, 10 µL with 1-3 µL TnT lysate; competitor at least 50x molar excess; 6% native gel, 0.5X TBE, 4 °C; binding temperature not stated; details: protein: ivt; tags: N-terminal Myc; chain copies: 2; blunt
T1 sequence: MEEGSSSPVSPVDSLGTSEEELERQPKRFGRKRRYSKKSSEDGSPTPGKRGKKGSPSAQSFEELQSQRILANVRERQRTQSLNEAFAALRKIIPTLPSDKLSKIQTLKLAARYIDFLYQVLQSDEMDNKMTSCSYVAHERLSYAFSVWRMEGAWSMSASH

[2] = molecular target: T2, TWIST1 (Homo sapiens, UniProt Q15672 1-202); assay: as above; details: protein: ivt; tags: Myc; chain copies: 2; blunt
[3] = molecular target: T3, ADD1/SREBP1c (rat, UniProt P56720-1 1-403); assay: EMSA; EMSA: 20 mM HEPES pH 7.9, 60 mM KCl, 1 mM MgCl2, 0.5 mM DTT, 10% glycerol, 10 µL with 1-3 µL TnT lysate; competitor at least 50x molar excess; 6% native gel, 0.5X TBE, 4 °C; binding temperature not stated; details: protein: ivt; tags: C-terminal Myc/His; chain copies: 2; label: 32P as probe; blunt
T3 sequence: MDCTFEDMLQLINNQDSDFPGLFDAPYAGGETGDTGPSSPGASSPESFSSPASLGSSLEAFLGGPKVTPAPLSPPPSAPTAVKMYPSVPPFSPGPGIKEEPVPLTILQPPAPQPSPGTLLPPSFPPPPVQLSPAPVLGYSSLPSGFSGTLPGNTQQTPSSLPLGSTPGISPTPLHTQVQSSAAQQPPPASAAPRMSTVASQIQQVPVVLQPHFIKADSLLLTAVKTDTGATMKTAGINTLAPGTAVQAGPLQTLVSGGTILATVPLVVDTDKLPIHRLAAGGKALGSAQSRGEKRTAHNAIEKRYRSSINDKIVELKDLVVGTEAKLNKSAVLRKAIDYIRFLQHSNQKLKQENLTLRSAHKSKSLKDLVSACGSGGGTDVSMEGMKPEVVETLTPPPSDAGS

[4] = molecular target: T1, TWIST2; assay: as above; details: protein: ivt; tags: N-terminal Myc; chain copies: 2; label: 32P as probe; blunt
[5] = molecular target: T3, ADD1/SREBP1c; assay: competition; vs labeled CH2700EA; EMSA: 20 mM HEPES pH 7.9, 60 mM KCl, 1 mM MgCl2, 0.5 mM DTT, 10% glycerol, 10 µL with 1-3 µL TnT lysate; competitor at least 50x molar excess; 6% native gel, 0.5X TBE, 4 °C; binding temperature not stated; details: protein: ivt; tags: C-terminal Myc/His; chain copies: 2; blunt
[6] = molecular target: T1, TWIST2; assay: as above; details: protein: ivt; tags: N-terminal Myc; chain copies: 2; blunt
[7] = molecular target: T2, TWIST1; assay: EMSA; EMSA: 20 mM HEPES pH 7.9, 60 mM KCl, 1 mM MgCl2, 0.5 mM DTT, 10% glycerol, 10 µL with 1-3 µL TnT lysate; competitor at least 50x molar excess; 6% native gel, 0.5X TBE, 4 °C; binding temperature not stated; details: protein: ivt; tags: Myc; chain copies: 2; label: 32P as probe; blunt
[8] = molecular target: T3, ADD1/SREBP1c; assay: EMSA; competition; EMSA: 20 mM HEPES pH 7.9, 60 mM KCl, 1 mM MgCl2, 0.5 mM DTT, 10% glycerol, 10 µL with 1-3 µL TnT lysate; competitor at least 50x molar excess; 6% native gel, 0.5X TBE, 4 °C; binding temperature not stated; details: protein: ivt; tags: C-terminal Myc/His; chain copies: 2; label: 32P as probe; blunt
[9] = molecular target: T1, TWIST2; assay: as above; details: protein: ivt; tags: N-terminal Myc; chain copies: 2; label: 32P as probe; blunt

B1: SP1 oligo (dsDNA)
DNA 1: ATTCGATCGGGGCGGGGCGAGC
DNA 2: GCTCGCCCCGCCCCGATCGAAT
- binding result [1]: no binding
- binding result [2]: no binding

B2: CH2700EA (dsDNA)
DNA 1: TGGTGGTGGTCACATGAATATACACATGCGATAAAATT
DNA 2: AATTTTATCGCATGTGTATATTCATGTGACCACCACCA
- binding result [3]: binds
- binding result [4]: binds

B3: CH2700EWAM (dsDNA)
DNA 1: B2 DNA 1 with A24G, T27C
DNA 2: B2 DNA 2 with A12G, T15C
- binding result [5]: binds

B4: CH2700EMAW (dsDNA)
DNA 1: B2 DNA 1 with A12G, T15C
DNA 2: B2 DNA 2 with A24G, T27C
- binding result [5]: binds
- binding result [6]: binds

B5: CH2600TWI (dsDNA)
DNA 1: TATATACACAGGCAAATGAGTGCATATAAA
DNA 2: TTTATATGCACTCATTTGCCTGTGTATATA
- binding result [7]: no binding
- binding result [8]: no binding
- binding result [9]: no binding

From article PMC10530651, “Mechanisms of Regulation of the CHRDL1 Gene by the TWIST2 and ADD1/SREBP1c Transcription Factors”
